{"source": "patent US11278600B2", "about": "“Human alpha-galactosidase variants” (Codexis, Inc., priority 2014, dated 2022)", "molecules": {"B1": {"name": "45 (protein)", "chain": "LDNGLARTPTMGWLHWERFMCNLDCQEEPDSCISEKLFMEMAELMVSEGWKDAGYEYLCIDDCWMAPQRDSEGRLQADPQRFPHGIRQLANYVHSKGLKLGIYADVGNKTCAGFPGSFGYYDIDAQTFADWGVDLLKFDGCYCDSLENLADGYKHMSLALNRTGRSIVYSCEWPLYMWPFQKPNYTEIRQYCNHWRNFADIDDSWKSIKSILDWTSFNQERIVDVAGPGGWNDPDMLVIGNFGLSWNQQVTQMALWAIMAAPLFMSNDLRHISPQAKALLQDKDVIAINQDPLGKQGYQLRQGDNFEVWERPLSGLAWAVAMINRQEIGGPRSYTIAVASLGKGVACNPACFITQLLPVKRKLGFYEWTSRLRSHINPTGTVLLQLQNTMQMSKDLLL", "modifications": "Synthetic Polypeptide sequence of Variant No. 45 of mature Human GLA"}, "B2": {"name": "47 (protein)", "chain": "B1 chain with Q387T", "modifications": "Synthetic Polypeptide sequence of Variant No. 47 of mature Human GLA"}, "B3": {"name": "50 (protein)", "chain": "B1 chain with F180S, Q387E", "modifications": "Synthetic Polypeptide sequence of Variant No. 50 of mature Human GLA"}, "B4": {"name": "46 (protein)", "chain": "B1 chain with Q387R", "modifications": "Synthetic Polypeptide sequence of Variant No. 46 of mature Human GLA"}, "B5": {"name": "49 (protein)", "chain": "B1 chain with F180R, Q387E", "modifications": "Synthetic Polypeptide sequence of Variant No. 49 of mature Human GLA"}, "B6": {"name": "48 (protein)", "chain": "B1 chain with E40D, Q387E", "modifications": "Synthetic Polypeptide sequence of Variant No. 48 of mature Human GLA"}}, "assay_type_in_all_cases": "biochemical", "key": {"[1]": {"experiment": "HTP-analysis of yeast culture supernatants, no challenge (MUGal hydrolysis)", "settings": "activity of the variant/activity of WT GLA (SEQ ID NO: 5), yeast supernatant", "in_short": "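Activity read as 4-methylumbelliferyl α-D-galactopyranoside hydrolysis: fluorescence (355/448 nm) after sodium carbonate stop, following 30-180 min at 37° C with 2 mM MUGal stock at pH 4.6–4.8. Enzyme source is unchallenged culture supernatant of INVSc1 yeast expressing GLA variants, grown 66-84 h at 30° C.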"}, "[2]": {"experiment": "HTP-analysis of supernatants pretreated with acid (MUGal hydrolysis)", "settings": "challenge at pH 4.2; activity of the variant/activity of WT GLA (SEQ ID NO: 5); yeast supernatant", "in_short": "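Yeast INVSc1 supernatant, GLA variants; acid challenge: McIlvaine pH 3.3-4.3, 37° C., 1-3 h. Assay: MUGal in McIlvaine pH 4.8 plus citrate pH 4.3, 37° C., 30-180 min, Na2CO3 stop, Ex 355/Em 448 nm.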"}, "[3]": {"experiment": "HTP-analysis of supernatants pretreated with base (MUGal hydrolysis)", "settings": "challenge at pH 7.1; activity of the variant/activity of WT GLA (SEQ ID NO: 5); yeast supernatant", "in_short": "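Fluorescence of released 4-MU (Ex 355 nm, Em 448 nm) after carbonate quench reports MUGal hydrolysis by GLA variants secreted from INVSc1 yeast. Before the acidic (pH 4.3-4.8) 30-180 min reaction at 37° C, supernatants had been pre-incubated at pH 7.0-9.7 for 1-18 h at 37° C.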"}}, "note": "Numbering of substitutions follows the chain as printed.", "data": [{"molecule": "B1", "values": [{"measurement": "Relative Activity of GLA Variants After No Challenge (NC)", "setting": "[1]", "result": "++ (++ = >1.5 to 2.5 relative activity over WT GLA (SEQ ID NO: 5))"}, {"measurement": "Relative Activity of GLA Variants After Challenge at pH 4.2", "setting": "[2]", "result": "++ (++ = >1.5 to 2.5 relative activity over WT GLA (SEQ ID NO: 5))"}, {"measurement": "Relative Activity of GLA Variants After Challenge at pH 7.1", "setting": "[3]", "result": "++ (++ = >1.5 to 2.5 relative activity over WT GLA (SEQ ID NO: 5))"}]}, {"molecule": "B2", "values": [{"measurement": "Relative Activity of GLA Variants After No Challenge (NC)", "setting": "[1]", "result": "+ (+ = 0.5 to 1.5 relative activity over WT GLA (SEQ ID NO: 5))"}, {"measurement": "Relative Activity of GLA Variants After Challenge at pH 4.2", "setting": "[2]", "result": "++ (++ = >1.5 to 2.5 relative activity over WT GLA (SEQ ID NO: 5))"}, {"measurement": "Relative Activity of GLA Variants After Challenge at pH 7.1", "setting": "[3]", "result": "+ (+ = 0.5 to 1.5 relative activity over WT GLA (SEQ ID NO: 5))"}]}, {"molecule": "B3", "values": [{"measurement": "Relative Activity of GLA Variants After No Challenge (NC)", "setting": "[1]", "result": "++ (++ = >1.5 to 2.5 relative activity over WT GLA (SEQ ID NO: 5))"}, {"measurement": "Relative Activity of GLA Variants After Challenge at pH 4.2", "setting": "[2]", "result": "++ (++ = >1.5 to 2.5 relative activity over WT GLA (SEQ ID NO: 5))"}, {"measurement": "Relative Activity of GLA Variants After Challenge at pH 7.1", "setting": "[3]", "result": "++ (++ = >1.5 to 2.5 relative activity over WT GLA (SEQ ID NO: 5))"}]}, {"molecule": "B4", "values": [{"measurement": "Relative Activity of GLA Variants After No Challenge (NC)", "setting": "[1]", "result": "+ (+ = 0.5 to 1.5 relative activity over WT GLA (SEQ ID NO: 5))"}, {"measurement": "Relative Activity of GLA Variants After Challenge at pH 4.2", "setting": "[2]", "result": "+++ (+++ = >2.5 relative activity over WT GLA (SEQ ID NO: 5))"}, {"measurement": "Relative Activity of GLA Variants After Challenge at pH 7.1", "setting": "[3]", "result": "+ (+ = 0.5 to 1.5 relative activity over WT GLA (SEQ ID NO: 5))"}]}, {"molecule": "B5", "values": [{"measurement": "Relative Activity of GLA Variants After No Challenge (NC)", "setting": "[1]", "result": "+ (+ = 0.5 to 1.5 relative activity over WT GLA (SEQ ID NO: 5))"}, {"measurement": "Relative Activity of GLA Variants After Challenge at pH 4.2", "setting": "[2]", "result": "+ (+ = 0.5 to 1.5 relative activity over WT GLA (SEQ ID NO: 5))"}, {"measurement": "Relative Activity of GLA Variants After Challenge at pH 7.1", "setting": "[3]", "result": "+ (+ = 0.5 to 1.5 relative activity over WT GLA (SEQ ID NO: 5))"}]}, {"molecule": "B6", "values": [{"measurement": "Relative Activity of GLA Variants After No Challenge (NC)", "setting": "[1]", "result": "+ (+ = 0.5 to 1.5 relative activity over WT GLA (SEQ ID NO: 5))"}, {"measurement": "Relative Activity of GLA Variants After Challenge at pH 4.2", "setting": "[2]", "result": "+ (+ = 0.5 to 1.5 relative activity over WT GLA (SEQ ID NO: 5))"}, {"measurement": "Relative Activity of GLA Variants After Challenge at pH 7.1", "setting": "[3]", "result": "+ (+ = 0.5 to 1.5 relative activity over WT GLA (SEQ ID NO: 5))"}]}]}
